{"source": "patent US20230212320A1", "key": {"[1]": {"biological_target": "Fc2 of PTC039 (IgG1 Fc chain with L351G, T366S, L368A, Y407V) (Homo sapiens (Human)) [IgG part: P0DOX5]", "assay": "SE-HPLC, PTC040 co-expression"}, "[2]": {"biological_target": "Fc2 of PTC039 (IgG1 Fc chain with L351G, T366S, L368A, Y407V) (Homo sapiens (Human)) [IgG part: P0DOX5]", "assay": "SE-HPLC, PTC074 co-expression"}}, "data": [{"substance": "Fc2 of PTC039 (IgG1 Fc chain with L351G, T366S, L368A, Y407V) (from UniProt P0DOX5 218-449)", "values": [{"measurement": "Fc-2-2 homo-dimer (%)", "setting": "[1]", "result": 1.5, "unit": "%"}, {"measurement": "Fc-2-2 homo-dimer (%)", "setting": "[2]", "result": 0.96, "unit": "%"}]}]}
